We go through two molecules from patent US8258099B2, “Pin1-modulating compounds and methods of use thereof” (Max-Planck-Gesellschaft zur Foerderung der Wissenschaften …, priority 2004, dated 2012).

Square brackets hold non-standard residues; d marks the D form. Peptide text beside a SMILES is read from it. * marks the point of attachment. Biotin = O=C1N[C@H]2[C@H](CS[C@H]2CCCCC(=O)*)N1; pT = C[C@@H](OP(=O)(O)O)[C@H](N)C(=O)O; 2Nal = N[C@@H](Cc1ccc2ccccc2c1)C(=O)O; Bta = N[C@@H](Cc1csc2ccccc12)C(=O)O; Pip = O=C(O)[C@@H]1CCCCN1

Test [1] concerns the target T1, full length hPin1 (Homo sapiens, UniProt Q13526).
T1 construct: The protease free assay ensures reliable measurement of IC50 values for the full-length hPin1
The test can be described thus: Isothermal titration calorimetry (ITC), full length hPin1. Format: binding. As to the method:
FIGS. 3A-B depicts a thermodynamic characterization of the binding of peptide 17 towards full length hPin1 by isothermal titration calorimetry (ITC). FIG. 3A depicts peaks that represent the heat evolved after injection of peptide 17 into the sample cell containing hPin1. After the 11th injection only the heat of dilution is observed. The experiment was performed at 10 C. FIG. 3B depicts integrals of the corresponding peaks of panel A are plotted against the molar ratio of peptide 17 and hPin1. The solid line represents a nonlinear least squares fit analysis of the binding heat assuming a single binding site model with the following parameters: ΔHbind=−4561±36 cal/mol, TΔSbind=5433±529 cal/mol, n=0.96 (binding stoichiometry) and KAss=5.18×10^7±7×10^6 M^−1 (association constant).
Calorimetric experiments were performed using a VP-ITC titration calorimeter (MicroCal, Inc, Northampton, Mass.) at 10° C. All solutions were degassed under vacuum prior to use. Solutions of hPin1 and hPin1 PPIase domain were dialyzed against 10 mM Hepes (pH 7.8). The protein concentration in the sample cell was adjusted to 6.5 μM using the same batch of buffer. Protein concentrations were determined as described above. The volume of the protein solution in the sample cell was 1.4 ml. The injection syringe was filled with 300 μl solution of peptide 17 (see table III) (250 μM in the same batch of buffer as used for dialyses). Each titration experiment consisted of a single 1 μl injection followed by 16 identical injections of 5 μl solution of peptide 17.
In principle, minimally four forms of a competing substrate in the presence of hPin1 have to be considered, the free cis and trans isomers together with two Michaelis complexes. This four-site exchange model of PPIase catalysis involves understanding predisposing factors of the stability of hPin1/substrate complexes, expected to be weaker, than the stability for those formed by phosphopeptides lacking substrate properties. The consequent increase in inhibitory potency could be realized by a transition state destabilizing substitution in peptide 15. Previous studies have shown that following C^α-stereocenter inversion of a substrate at the P1 position the parvulins fully retain substrate-like active site affinity for the derivatives while catalytic rate acceleration is abolished (Schiene et al., 1998). […] To optimize solute diffusion after mechanical injection of the Pin1 binding peptides into the viscous Xenopus laevis egg cytosol, the molecular weight of 1376.5 for peptide 16 was reduced to 823.8 for peptide 17. Following chain truncation peptide 17 maintained high affinity for Pin1 (Table III). To ensure domain selectivity, the binding of peptide 17 towards hPin1 was characterized using the isothermal titration calorimetry (ITC). […] The dissociation constant determined with ITC is in the same range as obtained in the protease-free PPIase assay (Table III).

The target in test [2] is T2, hPin1 (Homo sapiens, UniProt Q13526).
T2 construct: The protease free assay ensures reliable measurement of IC50 values for the full-length hPin1
Kind of test: Protease free PPIase assay, hPin1. Format: biochemical. The settings on record: 25 μM, phosphoester group on threonine lacking. The protocol: Protein concentrations were determined using the extinction coefficient ε280=21030 M^−1 cm^−1 for hPin1, ε280=6979 M^−1 cm^−1 for the hPin1 PPIase domain, ε280=21030 M^−1 cm^−1 for XlPin1, ε280=8250 M^−1 cm^−1 for hPar14 and ε280=8250 M^−1 cm^−1 for hCyp18. Extinction coefficients were calculated using the program ProtParam Tool at ExPASy (SIB, Switzerland). All measurements were done at 10° C. in 35 mM Hepes buffer (pH 7.8).
The determination of the kinetic constants of the cis/trans isomerization within the protease-free system was performed using fluorescence based measurements (Garcia-Echeverria et al., 1993, Zhang et al., 2002) on a Hitachi F-3010 fluorescence spectrophotometer with H-Abz-Ala-Glu-Pro-Phe-NH-Np (SEQ ID NO: 2) as substrate. The substrate stock solution was 12 mM in anhydrous trifluoroethanol/0.55 M LiCl. Measurements were initiated by addition of the substrate (final concentration 10 μM) to a pre-incubated (15 min) mixture of 8.8 nM hPin1 or 7.1 nM XlPin1 and respective inhibitory peptide of desired concentrations. The excitation wavelength was 320 nm (spectral bandwidth 3 nm) and emission was detected at 420 nm (spectral bandwidth 10 nm).
Data analysis was performed by single-exponential nonlinear regression using the SigmaPlot Scientific Graphing System Version 5.00 (Jandel Corp.). The apparent first order rate constant kobs was computed by nonlinear regression of the progress curve obtained for the respective measurement. The rate constant k0 was determined in the absence of Pin1. The first order rate constants kenz was calculated from the equation kenz=kobs−k0. IC50 and Ki values were determined by fitting the first order rate constants kenz against the concentration of the inhibitory peptide by nonlinear regression according to Schutkowski et al., 1995 or a model for tight binding inhibitors (Morrison, 1969).
The protease free assay ensures reliable measurement of IC50 values for the full-length hPin1.

For test [3], the target named is T3, GST-hPin1, GST-hPin1 PPIase and GST-hPin1 WW domain (Homo sapiens, UniProt Q13526).
T3 construct: made in house
Kind of test: Far western blot related analysis, hPin1 and its single domains. Format: binding. The settings on record: 1 μM peptide 15, 50 μM nonphosphorylated derivative. The protocol: FIGS. 2A-B depict western blot experiments analyzing the binding of peptide 15 to Pin1. FIG. 2A depicts the binding preferences of the PPIase and WW domain of hPin1 regarding peptide 15. In far western blot related experiments, increasing amounts (from left to right: 1, 5, 10, 52.5, 105 pmol) of GST, GST-hPin1 or its single GST-hPin1 PPIase and GST-hPin1 WW domain were spotted onto nitrocellulose membranes followed by a blocking procedure. The membranes were then incubated with a 1 μM solution of peptide 15 or 50 μM solution of its nonphosphorylated derivative (control). Signals were detected after incubation of the nitrocellulose membranes with horseradish peroxidase-conjugated streptavidin followed by a chemiluminescent reaction using the SuperSignal® substrate. FIG. 2B depicts an analysis of the binding of peptide 15 towards different GST-hPin1 variants. […] Residual PPIase activities of GST-hPin1 and its variants were determined according to Zhou et al., 2000 and/or Yaffe et al., 1997. The PPIase activity of the GST-hPin1 variant Ser16Glu was measured in the protease free PPIase assay.
GST-hPin1 variants, GST-hPin1 PPIase and GST-hPin1 WW domain were prepared as described previously (Ranganathan et al., 1997, Zhou et al., 2000). […] Specific bound peptide 15 was detected by a chemiluminescent reaction using the SuperSignal® substrate (Pierce).

T1 sequence (Q13526 whole entry): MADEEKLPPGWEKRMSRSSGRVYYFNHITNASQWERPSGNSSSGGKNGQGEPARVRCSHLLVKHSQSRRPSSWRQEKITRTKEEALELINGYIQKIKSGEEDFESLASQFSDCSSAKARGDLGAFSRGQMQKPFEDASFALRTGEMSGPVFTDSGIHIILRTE
T3 sequence (Q13526 whole entry, the tested form may be a part): as the sequence (Q13526 whole entry) above
T2 sequence (Q13526 whole entry): as above

Take `CC(=O)N[C@@H](Cc1ccccc1)C(=O)N[C@H](C(=O)N1CCCC[C@H]1C(=O)N[C@@H](Cc1ccc2ccccc2c1)C(=O)N[C@@H](CCC(N)=O)C(N)=O)[C@@H](C)OP(=O)(O)O` [Ac-Phe-L-Thr(PO3H2)-Pip-Nal-Gln-NH2, reference compound] (Ac-F[pT][Pip][2Nal]Q-NH2): in test [1], the Kd was 0.6 µM. Consider “nonphosphorylated derivative of peptide 15: peptide 15 lacking the phosphoester group on threonine, used as control (Ac-K(Biotin)AA[Bta]T[Pip][2Nal]Q-NH2; SMILES CC(=O)N[C@@H](CCCCNC(=O)CCCC[C@@H]1SC[C@@H]2NC(=O)N[C@@H]21)C(=O)N[C@@H](C)C(=O)N[C@@H](C)C(=O)N[C@@H](Cc1csc2ccccc12)C(=O)N[C@H](C(=O)N1CCCC[C@H]1C(=O)N[C@@H](Cc1ccc2ccccc2c1)C(=O)N[C@@H](CCC(N)=O)C(N)=O)[C@@H](C)O) [reference compound]”, for which the hPin1 inhibition entry in test [2] is on record as “does not show any hPin1 inhibition”. Further, the “binding to GST-hPin1 and its PPIase and WW domains” value in test [3] is “not able to form a complex”.
